Laboratory results published in patent publication US20100129373A1.

What was measured:
[1] = molecular target: recombinant mouse VEGF (493-MV, R&D systems, USA) (mouse) (UniProt Q00731); experiment: ELISA, Ab 3.13 nM
[2] = molecular target: recombinant mouse VEGF (493-MV, R&D systems, USA) (mouse) (UniProt Q00731); experiment: ELISA, Ab 1.56 nM
[3] = molecular target: recombinant mouse VEGF (493-MV, R&D systems, USA) (mouse) (UniProt Q00731); experiment: ELISA, Ab 0.10 nM
[4] = molecular target: recombinant mouse VEGF (493-MV, R&D systems, USA) (mouse) (UniProt Q00731); experiment: ELISA, Ab 25 nM
[5] = molecular target: recombinant mouse VEGF (493-MV, R&D systems, USA) (mouse) (UniProt Q00731); experiment: ELISA, Ab 0.39 nM
[6] = molecular target: recombinant mouse VEGF (493-MV, R&D systems, USA) (mouse) (UniProt Q00731); experiment: ELISA, Ab 0.20 nM
[7] = molecular target: recombinant mouse VEGF (493-MV, R&D systems, USA) (mouse) (UniProt Q00731); experiment: ELISA, Ab 0.78 nM
[8] = molecular target: recombinant mouse VEGF (493-MV, R&D systems, USA) (mouse) (UniProt Q00731); experiment: ELISA, Ab 50 nM
[9] = molecular target: recombinant mouse VEGF (493-MV, R&D systems, USA) (mouse) (UniProt Q00731); experiment: ELISA, Ab 12.5 nM
[10] = molecular target: recombinant mouse VEGF (493-MV, R&D systems, USA) (mouse) (UniProt Q00731); experiment: ELISA, Ab 0.049 nM
[11] = molecular target: recombinant mouse VEGF (493-MV, R&D systems, USA) (mouse) (UniProt Q00731); experiment: ELISA, Ab 6.25 nM
[12] = molecular target: T1, recombinant mouse VEGF (493-MV, R&D systems, USA) (mouse) (UniProt Q00731); experiment: ELISA, control IgG 50 nM
T1 sequence (looked up): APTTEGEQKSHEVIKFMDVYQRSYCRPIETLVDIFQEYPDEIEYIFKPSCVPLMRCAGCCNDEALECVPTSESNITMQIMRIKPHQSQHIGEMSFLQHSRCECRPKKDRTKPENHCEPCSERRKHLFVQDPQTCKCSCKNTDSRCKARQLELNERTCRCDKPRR

[13] = molecular target: recombinant human VEGF (293-VE, R&D systems, USA) (human) (UniProt P15692); experiment: ELISA, control IgG 50 nM

| OD490 [1] | OD490 [2] | OD490 [3] | OD490 [4] | OD490 [5] | OD490 [6] | OD490 [7] | OD490 [8] | OD490 [9] | OD490 [10] | OD490 [11] | OD490 [12] | OD490 [13] | Substance |
| --- | --- | --- | --- | --- | --- | --- | --- | --- | --- | --- | --- | --- | --- |
| 0.0489 | 0.0455 | 0.147 | 0.107 | 0.0569 | 0.0433 | 0.0438 | 0.695 | 0.104 | 0.0687 | 0.0424 | – | – | Avastin™ (bevacizumab, Genetech), humanized anti-VEGF monoclonal antibody |
| – | – | – | – | – | – | – | – | – | – | – | 0.0467 | 0.052 | normal human IgG (antibody) |
